One molecule from patent US6319685A (Unigene Laboratories, Inc., priority 1987, dated 2001) can be followed below.

A short description of data set [1]: nonspecific proteolytic activity of enzyme preparation. It counts as biochemical. To be noted: CA-77 media, after DEAE and Sephacryl 300-SF.
Data set [2] can be described thus: specific alpha-amidating activity, conversion of Dansyl-D-Tyr-Val-Gly to Dansyl-D-Tyr-Val-CONH2. The class given is biochemical. The note with it: CA-77 media. As to the method: These and other objects will become apparent from a thorough reading of the present disclosure. […] All specific activity units set forth herein are based upon the conversion of Dansyl-D-Try-Val-Gly-COOH to Dansyl-D-Tyr-Val-CONH2. One mU is defined as the amount of activity needed to convert one nanomole (nmole) of Dansyl-D-Tyr-Val-Gly-COOH to one nmole of Dansyl-D-Tyr-Val-CONH2 per minute at 37° C. and pH 7.0 in the presence of ascorbate ions at a concentration of 3 mM (based on total reaction mixture including enzyme, substrate, co-factors, etc.), molecular oxygen in a molar excess over substrate and a concentration of cupric ions effective to maximize activity (usually about 2 μM depending on the state of purity of the enzyme).
Each purification step can be monitored for both protein content and the level of alpha-amidation activity. This information is used to calculate the specific activity of the enzyme which serves as an indicator of the relative purity of the enzyme.
Sephacryl S-300 (Pharmacia) was equilibrated in 50 mM Tris HCl pH 7.0 and poured into a K 50/100 column (Pharmacia) according to the manufacturer's instructions. The bed volume of the column was approximately 1.3 liters. The Sample was loaded onto the column in a volume representing approximately 3 percent of the bed volume of the column. Proteins were eluted from the column in 50 mM Tris HCl pH 7.0 at a flow rate of approximately 2 ml per minute.
The reaction mixture for the conversion of the monodansyl substrate contained:
The samples were prepared in duplicate and incubated at 37° C. for 10, 20 and 30 minutes time periods. The enzymatic reaction was halted by the addition of 10 ul 500 mM EDTA.

B1: alpha-amidating enzyme (CA-77): alpha-amidating enzyme derived from CA-77 cell tissue culture media (protein, UniProt P14925 36-976, looked up)
Peptidylglycine …: FKETTRSFSNECLGTIGPVTPLDASDFALDIRMPGVTPKESDTYFCMSMRLPVDEEAFVIDFKPRASMDTVHHMLLFGCNMPSSTGSYWFCDEGTCTDKANILYAWARNAPPTRLPKGVGFRVGGETGSKYFVLQVHYGDISAFRDNHKDCSGVSVHLTRVPQPLIAGMYLMMSVDTVIPPGEKVVNADISCQYKMYPMHVFAYRVHTHHLGKVVSGYRVRNGQWTLIGRQNPQLPQAFYPVEHPVDVTFGDILAARCVFTGEGRTEATHIGGTSSDEMCNLYIMYYMEAKYALSFMTCTKNVAPDMFRTIPAEANIPIPVKPDMVMMHGHHKEAENKEKSALMQQPKQGEEEVLEQGDFYSLLSKLLGEREDVHVHKYNPTEKTESGSDLVAEIANVVQKKDLGRSDAREGAEHEEWGNAILVRDRIHRFHQLESTLRPAESRAFSFQQPGEGPWEPEPSGDFHVEEELDWPGVYLLPGQVSGVALDSKNNLVIFHRGDHVWDGNSFDSKFVYQQRGLGPIEEDTILVIDPNNAEILQSSGKNLFYLPHGLSIDTDGNYWVTDVALHQVFKLDPHSKEGPLLILGRSMQPGSDQNHFCQPTDVAVEPSTGAVFVSDGYCNSRIVQFSPSGKFVTQWGEESSGSSPRPGQFSVPHSLALVPHLDQLCVADRENGRIQCFKTDTKEFVREIKHASFGRNVFAISYIPGFLFAVNGKPYFGDQEPVQGFVMNFSSGEIIDVFKPVRKHFDMPHDIVASEDGTVYIGDAHTNTVWKFTLTEKMEHRSVKKAGIEVQEIKEAEAVVEPKVENKPTSSELQKMQEKQKLSTEPGSGVSVVLITTLLVIPVLVLLAIVMFIRWKKSRAFGDHDRKLESSSGRVLGRFRGKGSGGLNLGNFFASRKGYSRKGFDRVSTEGSDQEKDEDDGTESEEEYSAPLPKPAPSS
In the case of B1, the nonspecific proteolytic activity entry in data set [1] is on record as “free of nonspecific proteolytic activity”. The activity result in data set [2] (after DEAE and Sephacryl 300-SF) is on record as “at least 50 mU/mg protein”. Moreover, the specific activity in data set [2] (fractions from DEAE weak anion exchange cartridge) is 10-15 mU/mg.
